Assay results published in US20160298128A1 (University of California, published 2016).

Legend:
[1] = target: T1, PsbO1, photosystem II subunit (endogenous protein in Arabidopsis protein extracts) (Arabidopsis thaliana, UniProt P23321 86-332); assay: Co-IP with anti-HA magnetic beads from DEX-3 plant extracts, LC-MS/MS
T1 construct: Endogenous protein; also called PSII subunit PsbO1
Procedure: Four-day-old seedlings of Col-0 and transgenic plants DEX:AtCV-HA-3 (DEX-3) were cultured in MS/2 media containing […] for 4 days and then kept in the dark for additional 2 days. The shoots of plants were harvested, ground in liquid N2 and incubated at 4° C. for 3 h with lysis buffer provided by μMACS HA Isolation Kit (Miltenyl Biotec, San Diego, Calif., USA), containing Protease Inhibitor Cocktail (Sigma-Aldrich, St. Louis, Mo., USA). Co-immunoprecipitation was performed using anti-HA magnetic beads from μMACS HA Isolation Kit (Miltenyl Biotec, San Diego, Calif., USA) and incubating the cell lysis with beads at 4° C. for 2 h. LC-MS/MS analysis was performed in Genome Center of University California, Davis, as described previously (Shipman-Roston et al. 2010, Plant Physiol 152: 1297-1308). Scaffold (version Scaffold 3) was used to validate MS/MS-based peptide and protein identification. Peptide identifications were accepted if they could be established at >80.0% probability. […]
To elucidate mechanism(s) by which AtCV disrupts chloroplasts, we identified AtCV potential interacting proteins using co-immunoprecipitation (Co-IP) and subsequent identification of interactors by LC-MS/MS (Smaczniak et al. 2012, Nat Protoc 7: 2144-2158). […] In order to confirm this interaction, we used bimolecular fluorescence complementation (BiFC).

[2] = target: T1, PsbO1, photosystem II subunit …; assay: Co-IP with anti-PsbO antibody and Protein A beads, immunoblot with anti-HA

T1 sequence (P23321 86-332 limits assumed): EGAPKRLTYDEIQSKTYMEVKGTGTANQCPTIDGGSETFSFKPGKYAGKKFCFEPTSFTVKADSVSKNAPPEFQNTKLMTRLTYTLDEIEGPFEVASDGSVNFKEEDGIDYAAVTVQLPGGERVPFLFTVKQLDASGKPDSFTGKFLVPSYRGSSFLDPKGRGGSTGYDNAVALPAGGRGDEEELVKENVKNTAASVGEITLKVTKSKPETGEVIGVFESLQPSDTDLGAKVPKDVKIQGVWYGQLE

B1: AtCV-HA (Arabidopsis thaliana chloroplast vesiculation protein, At2G25625, fused to an HA tag; expressed from DEX:AtCV-HA, line DEX-3) (other)
chain: ASLLKTTSKISCRRTENETEPRKNKCSFVLGVAATVVIGGIQINDVASVEAAVVKSPVEEMAAGVVPPRRWSDKRTCPPWLENSLETIVPENLPRPSAHRRLELAGLAKGDAPPVGVVMTRVNRGGCFSV
notes: Expressed in planta after DEX induction; also called DEX:AtCV-HA-3; full length AtCV; not shown: HA tag from vector pBAV 154
B1: binds [1].

B2: AtCVΔC-HA (AtCV without the C-terminus conserved domain, HA tagged; DEX::AtCVΔC-HA plants) (other)
chain: ASLLKTTSKISCRRTENETEPRKNKCSFVLGVAATVVIGGIQINDVASVEAAVVKSPVEEMAAGVVPPR
notes: The making of the construct is not described; not shown: HA tag
B2: no binding [2].
